Where a chain is given by its changes, count along the chain named. One block for each binder: values may come before it.
What was measured:
[1] = target: T1, biotinylated Human PD1 (AcroBiosystems, reference EP-101) (human, UniProt Q15116 25-167, limits assumed, biotinylated); assay: competition ELISA: PD-L2 Fc immobilised, biotinylated PD-1 mixed with the fusion at varied concentration, streptavidin-peroxidase; blocked ligand PD-L2 [following]
T1 construct: also called biotinylated recombinant human PD-1; recombinant biotinylated PD1 protein
Procedure: (§1) FIG. 8: Competition PD-1/PD-L1 or PD-L2 ELISA assay. […] (D): PD-1/PD-L2 antagonist activity. […] Similar protocol as PD-L1/PD-1 assay was used for revelation. In this experiment, the bifunctional molecule comprises a humanized anti-PD1 antibody having a heavy chain variable domain as disclosed in SEQ ID NO: 24 and a light chain variable domain as disclosed in SEQ ID NO:28.
(§2) Competitive ELISA assay was performed by PD-1:PD-L1 Inhibitor Screening ELISA Assay Pair (AcroBiosystems; USA; reference EP-101). In this assay, recombinant hPDL1 was immobilized on plastic at 2 μg/ml in PBS pH 7.4 buffer. […] Same ELISA protocol was performed to assess PDL2/PD1 antagonist activity by coating PD-L2 Fc recombinant protein (Sinobiological, #10292-H02H).

[2] = target: T1, biotinylated Human PD1 (AcroBiosystems, …); assay: competition ELISA: PD-L1 immobilized, biotinylated PD-1 at fixed concentration, antibody varied
Procedure: as §1, §2

[3] = target: T2, recombinant hPD1 (Sino Biologicals, reference 10377-H08H) (human, UniProt Q15116 25-167); assay: ELISA: hPD-1 immobilized, anti-human Fc peroxidase
T2 construct: also called Human recombinant PD-1 protein; PD1-His recombinant protein
T2 sequence (Q15116 25-167 limits assumed): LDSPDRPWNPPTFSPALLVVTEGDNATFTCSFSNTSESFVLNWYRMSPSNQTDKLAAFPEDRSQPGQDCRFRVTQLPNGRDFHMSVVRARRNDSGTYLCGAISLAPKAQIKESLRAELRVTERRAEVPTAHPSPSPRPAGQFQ

T1 sequence (Q15116 25-167 limits assumed): as above

B3: Anti-PD1 Ab alone, no fusion (FIG. 8 / Table 5) (antibody, V domains shown)
VH: QIQLVQSGSELKKPGASVKVSCKASGYTFTHYAMNWVRQAPGQGLEWMGWINTNTGEPTYAQGFTGRFVFSLDTSVSTAYLQISSLKAEDTAVYYCAREREPGMDNWGQGTLVTVSS
VL: DVVMTQSPLSLPVTLGQPASISCRSSQSLVHANTNTYLEWYQQRPGQSPRLLIYKVSNRFSGVPDRFSGSGSGTDFTLKISRVEAEDVGVYYCFQGTHVPNTFGQGTKLEIK
notes: also called anti-PD1 antibody alone
IC50 [2]: 0.184 µg/mL

B4: Anti-PD1 Ab alone, no fusion, FIG. 4 / Table 1 (antibody, V domains shown)
VH: B3 VH with N106T
VL: DVVMTQSPLSLPVTLGQPASISCRSSQSLVHANTNTYLEWYQQRPGQSPRLLIYKVSNRFSGVPDRFSGSGSGTDFTLKISRVEAEDVGVYYCFQGTHVPNTFGQGTKLEIKR
EC50 [3]: 0.00167 µg/mL

Second part, the binder after the results:

IC50 (read off the curve) [1]: ~0.7 µg/mL
B1: Humanized anti-PD1 (VH SEQ ID NO:24, VL SEQ ID NO:28) VH fusion to Cytokine-protein A (IL-7) (other, not shown: small tags and cut ends)
heavy: B3 VH
VL: B3 VL
notes: Bifunctional molecule; also called Anti-PD1 fused to Cytokine-protein A (IL-7), VH fusion; anti PD-1 VH IL-7

IC50 (read off the curve) [1]: ~0.9 µg/mL
B2: Humanized anti-PD1 (VH SEQ ID NO:24, VL SEQ ID NO:28) VH fusion to CD80 (other, not shown: small tags and cut ends)
heavy: B3 VH
VL: B3 VL
notes: Bifunctional molecule; also called anti PD-1 VH CD80

From patent US20220025050A1 (OSE IMMUNOTHERAPEUTICS, published 2022)
